According to the supplement of paper PMC7877785:
± gives the uncertainty stated by the source.

Experiment: self-splicing fitness, log relative to wild type (ln ratio); higher = more splicing; Tetrahymena group I intron in knt gene, E. coli kanamycin selection, DiMSum; sequences stand for … in CUCUCU…GGAGGGAAAAGUUAUCAGGCAUGCACCUGGUAGCUAGUCUUUAAACCAAUAGAUUGCAUCGGUUUAAAAGGCAAGACCGUCAAAUUGCGGGAAAGGGGUCAACAGCCGUUCAGUACCAAGUCUCAGGGGAAACUUUGAGAUGGCCUUGCAAAGGGUAUGGUAAUAAGCUGACGGACAUGGUCCUAACCACGCAGCCAAGUCCUAAGUCAACAGAUCUUCUGUUGAUAUGGAUGCAGUUCACAGACUAAAUGUCGGUCGGGGAAGAUGUAUUCUUCUCAUAAGAUAUAGUCGGACCUCUCCUUAAUGGGAGCUAGCGGAUGAAGUGAUGCAACACUGGAGCCGCUGGGAACUAAUUUGUAUGCGAAAGUAUAUUGAUUAGUUUUGGAGUACUCGUGGUCG
In short: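 Six replicate transformations of E. coli BL21(DE3) with a pET-22b(+) library were grown overnight at 37°C or 30°C. The library randomised all eight P1ex-region intron nucleotides, the intron lying in the knt kanamycin-resistance gene, and plates were LB agar with or without 25 μg/mL kanamycin plus 100 μg/mL carbenicillin, 50 μM IPTG and 0.2% rhamnose. Pooled colonies were amplicon-sequenced on an Illumina HiSeq 2500, and fitness is the DiMSum error-weighted combination of wild-type-normalised replicate fold changes, kanamycin versus none.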

Sequence | self-splicing fitness (ln) (30 °C) | self-splicing fitness (ln) (37 °C)
CGCAAGCAAUAUUACGAAUG | -1.4 ± 0.1 | -0.303 ± 0.1
CGCAAGCAAUAUUACGACAA | -2.37 ± 0.17 | -1.51 ± 0.16
CGCAAGCAAUAUUACGAUAC | -2.51 ± 0.17 | -2.58 ± 0.33
CGCAAGCAAUAUUACGAUUG | -2.21 ± 0.056 | -1.01 ± 0.07
CGCAAGCAAUAUUACGCAUC | -2.57 ± 0.12 | -2.66 ± 0.12
CGCAAGCAAUAUUACGCAUG | -2.77 ± 0.11 | -2.19 ± 0.12
CGCAAGCAAUAUUACGCGUA | -3.47 ± 0.15 | -2.55 ± 0.12
CGCAAGCAAUAUUACGCUCA | -0.828 ± 0.076 | -0.6 ± 0.088
CGCAAGCAAUAUUACGCUUA | -3.58 ± 0.35 | -1.8 ± 0.18
CGCAAGCAAUAUUACGGAGG | -1.02 ± 0.057 | -0.818 ± 0.072
CGCAAGCAAUAUUACGGCGC | -2.37 ± 0.12 | -1.73 ± 0.18
CGCAAGCAAUAUUACGGGAA | -2.96 ± 0.2 | -2.27 ± 0.19
CGCAAGCAAUAUUACGUAGC | -3.3 ± 0.17 | -1.17 ± 0.18
CGCAAGCAAUAUUACGUAGU | -3.1 ± 0.097 | -2.75 ± 0.098
CGCAAGCAAUAUUACGUAUG | -2.25 ± 0.091 | -0.723 ± 0.091
CGCAAGCAAUAUUACGUCGU | -3.27 ± 0.13 | -2.2 ± 0.1
CGCAAGCAAUAUUACGUCUA | -1.6 ± 0.13 | -0.573 ± 0.11
CGCAAGCAAUAUUACGUGUC | -2.39 ± 0.12 | -2.68 ± 0.16
CGCAAGCAAUAUUACGUUGG | -2.66 ± 0.096 | -1.02 ± 0.1
CGCAAGCAAUAUUACGUUGU | -3.69 ± 0.11 | -2.41 ± 0.12
CGCAAGCAAUAUUACGUUUG | -4.31 ± 0.26 | -2.8 ± 0.24
CGCCAGCAAUAUUACGAAUA | -3.44 ± 0.34 | –
CGCCAGCAAUAUUACGACAA | -2.46 ± 0.31 | -0.75 ± 0.15
CGCCAGCAAUAUUACGACCC | -1.84 ± 0.21 | -1.46 ± 0.39
CGCCAGCAAUAUUACGACGG | -1.65 ± 0.11 | -0.853 ± 0.12
CGCCAGCAAUAUUACGAGCA | -0.418 ± 0.064 | 0.817 ± 0.092

Sequence | self-splicing fitness (ln) (30 °C) | self-splicing fitness (ln) (37 °C)
CGCCAGCAAUAUUACGAUGA | -2.2 ± 0.12 | -1.48 ± 0.13
CGCCAGCAAUAUUACGAUUU | -2.75 ± 0.19 | -2.62 ± 0.2
CGCCAGCAAUAUUACGCAAG | -1.03 ± 0.077 | -0.526 ± 0.091
CGCCAGCAAUAUUACGCCAU | – | -2.11 ± 0.46
CGCCAGCAAUAUUACGCGAC | -3.18 ± 0.21 | -2.15 ± 0.17
CGCCAGCAAUAUUACGCGAG | -4.1 ± 0.18 | -2.97 ± 0.25
CGCCAGCAAUAUUACGCUCC | -0.395 ± 0.13 | -1.36 ± 0.2
CGCCAGCAAUAUUACGCUGG | -3.22 ± 0.17 | -2.2 ± 0.18
CGCCAGCAAUAUUACGCUUC | -2.77 ± 0.26 | -3.27 ± 0.37
CGCCAGCAAUAUUACGGAAC | -2.64 ± 0.23 | -1.52 ± 0.24
CGCCAGCAAUAUUACGGACA | -0.882 ± 0.11 | -0.254 ± 0.11
CGCCAGCAAUAUUACGGAUA | -1.77 ± 0.18 | -1.32 ± 0.21
CGCCAGCAAUAUUACGGAUG | -2.64 ± 0.1 | -1.25 ± 0.087
CGCCAGCAAUAUUACGGAUU | -3.66 ± 0.19 | -0.897 ± 0.097
CGCCAGCAAUAUUACGGGAA | -2.84 ± 0.12 | -1.64 ± 0.1
CGCCAGCAAUAUUACGGGAU | -3.96 ± 0.27 | -2.32 ± 0.28
CGCCAGCAAUAUUACGGGUU | -2.64 ± 0.1 | -2.18 ± 0.12
CGCCAGCAAUAUUACGGUGA | -1.98 ± 0.11 | -1.84 ± 0.11
CGCCAGCAAUAUUACGUAUC | -3.94 ± 0.33 | -3.92 ± 0.42
CGCCAGCAAUAUUACGUCUU | -3.58 ± 0.25 | -1.45 ± 0.2
CGCCAGCAAUAUUACGUGAA | -1.76 ± 0.1 | -1.1 ± 0.14
CGCCAGCAAUAUUACGUUCC | -2.71 ± 0.16 | -1.67 ± 0.37
CGCCAGCAAUAUUACGUUCG | -1.18 ± 0.069 | 0.325 ± 0.086
CGCGAGCAAUAUUACGAAGC | – | -1.75 ± 0.45
CGCGAGCAAUAUUACGACAG | -0.942 ± 0.11 | -0.403 ± 0.16
CGCGAGCAAUAUUACGACCA | -1.71 ± 0.26 | -2.4 ± 0.29

Sequence | self-splicing fitness (ln) (30 °C) | self-splicing fitness (ln) (37 °C)
CGCGAGCAAUAUUACGACGA | – | -0.89 ± 0.35
CGCGAGCAAUAUUACGAGAA | – | -2.08 ± 0.34
CGCGAGCAAUAUUACGAGAG | -2.69 ± 0.18 | -2.92 ± 0.31
CGCGAGCAAUAUUACGAUGC | – | -2.16 ± 0.21
CGCGAGCAAUAUUACGAUUA | -3.1 ± 0.3 | -1.99 ± 0.35
CGCGAGCAAUAUUACGCAAC | -2.25 ± 0.31 | –
CGCGAGCAAUAUUACGCAGG | -2.68 ± 0.13 | -1.88 ± 0.15
CGCGAGCAAUAUUACGCAUA | -1.87 ± 0.32 | -2.14 ± 0.43
CGCGAGCAAUAUUACGCAUC | -3.36 ± 0.38 | -0.312 ± 0.28
CGCGAGCAAUAUUACGCCUU | -2.45 ± 0.43 | –
CGCGAGCAAUAUUACGCUGG | -1.39 ± 0.18 | -1.31 ± 0.28
CGCGAGCAAUAUUACGGAAU | -3.2 ± 0.2 | -3.01 ± 0.25
CGCGAGCAAUAUUACGGAUG | -2.25 ± 0.17 | -0.671 ± 0.12
CGCGAGCAAUAUUACGGCCU | -2.69 ± 0.26 | -1.65 ± 0.22
CGCGAGCAAUAUUACGGCGA | -2.29 ± 0.24 | -1.19 ± 0.21
CGCGAGCAAUAUUACGGCGU | -4.64 ± 0.34 | -2.9 ± 0.29
CGCGAGCAAUAUUACGGGCA | -0.464 ± 0.084 | -0.0497 ± 0.11
CGCGAGCAAUAUUACGGGUA | -2.5 ± 0.23 | -2.11 ± 0.24
CGCGAGCAAUAUUACGGUGG | -2.1 ± 0.1 | -1.43 ± 0.13
CGCGAGCAAUAUUACGUAAA | -3.8 ± 0.19 | -2.78 ± 0.15
CGCGAGCAAUAUUACGUCUU | -2.32 ± 0.2 | -2.05 ± 0.24
CGCGAGCAAUAUUACGUGAU | -2.82 ± 0.23 | -3.59 ± 0.37
CGCGAGCAAUAUUACGUGCC | -3.8 ± 0.42 | -2.96 ± 0.48
CGCGAGCAAUAUUACGUGGG | -3.81 ± 0.29 | -2.54 ± 0.21
CGCGAGCAAUAUUACGUUGA | -3.51 ± 0.25 | -2.05 ± 0.2
